{
  "source": "paper PMC5722371",
  "key": {"[1]": {"biological_target": "Neisseria meningitides DMP19 (DNA mimic protein 19 kDa), tag free (Neisseria meningitides)", "experiment": "SEC; Superose 12, 20 mM Tris pH 7.4, 100 mM NaCl; 750 μM HU-His6 or 1500 μM tag-free DMP19 alone, or both together; MW from Kav against four standards"}, "[2]": {"biological_target": "Neisseria meningitides DMP19 (DNA mimic protein 19 kDa), tag free (Neisseria meningitides)", "experiment": "ITC; ITC200, 300 μM HU-His6 dimer in the syringe into 30 μM DMP19 monomer in the cell, 20 mM Tris pH 7.4, 50 mM NaCl, 25°C, 20 injections of 2 μl"}, "[3]": {"biological_target": "Neisseria meningitides DMP19 (DNA mimic protein 19 kDa), tag free (Neisseria meningitides)", "experiment": "ITC; ITC200, 300 μM HU-His6 dimer in the syringe into 30 μM DMP19 monomer in the cell, 20 mM Tris pH 7.4, 50 mM NaCl, 25°C, 20 injections of 2 μl", "remark": "listed apart in the source"}, "[4]": {"biological_target": "C-terminal His6-tagged Neisseria HU (not stated (Neisseria))", "experiment": "SEC; Superose 12, 20 mM Tris pH 7.4, 100 mM NaCl; 750 μM HU-His6 or 1500 μM tag-free DMP19 alone, or both together; MW from Kav against four standards"}, "[5]": {"biological_target": "HU (Haemophilus influenzae) (UniProt P43722)", "experiment": "ITC", "settings": "cited from earlier work"}},
  "note": "Where “and” joins values, the source holds several entries; their conditions need not be identical. Equal values may be shown once. Read-outs that look alike come from different tables or passages of the source.",
  "data": [
    {"substance": "Neisseria meningitides DMP19 (DNA mimic protein 19 kDa), tag free (natural protein)", "values": [
      {"measurement": "stoichiometry N", "setting": "[1]", "value": 2}
    ]},
    {"substance": "C-terminal His6-tagged Neisseria HU (natural protein)", "values": [
      {"measurement": "Kd", "setting": "[2]", "value": 500, "unit": "nM"},
      {"measurement": "Kd", "setting": "[3]", "value": "380 nM and 490 nM and 640 nM"},
      {"measurement": "stoichiometry N", "setting": "[4]", "value": 2}
    ]},
    {"substance": "HI1450 (from UniProt P44199)", "values": [
      {"measurement": "Kd", "setting": "[5]", "value": 3000, "unit": "nM"}
    ]}
  ]
}
